Data taken from the DeepSol protein solubility set.

Test: soluble on expression in E. coli; label from the status in PepcDB or PDB records

Sequence: MGHHHHHHSHMTKHPPNRRGISFEVGAQLEARDRLKNWYPAHIEDIDYEEGKVLIHFKRWNHRYDEWFCWDSPYLRPLEKIQLRKEGLHEEDGSSEFQINEQVLACWSDCRFYPAKVTAVNKDGTYTVKFYDGVVQTVKHIHVKAFSKDQNIVGNARPKETDHKSLSSSPDKREKFKEQRKATVNVKKDKEDKPLKTEKRPKQPDKEGKLICSEKGKVSEKSLPKNEKEDKENISENDREYSGDAQKTRQTPFHSSYCCGFKLSNFATNNIGTEKKENIKRM
- soluble on expression in E. coli: not soluble

Sequence: GSYTLSEKDLKELDSIRDSFQCMNEPLDNDQQASTLAKKEHNPTDILNVMDITMRRLVKMAKRLGAFNEISEAGKFSLLKGGMIEMLTIRGVTVFNADKGVWQTPVDGHSQISFNMFDKLRPDIKDTQKKGFLHFFNLLHSDVRKNDLAIDIIVLMVLFDSKREGLVSQQDKETVEKLHRNYESLLHRYLYSIHKEEAEQRFASIPKALVALRKVAENAVTLFLGAGNTTEAASLPKEFFATNY
- soluble on expression in E. coli: soluble

Sequence: SEPIAAAPQIPVSEWDNPGIKLQVAPIPRICGMPEVQDMKLITPVRRSARIERTVARYPEMLQEHDVVVASLNELLEVDKTECFIFRENEALPVTLGFEVLES
- soluble on expression in E. coli: not soluble

Sequence: MGSDKIHHHHHHMQPDVRHSPKEAFEFAANNGFTHVEILMDHPLYSLENLSFAEVIELKWSYDLDLLIHAPATSTNFISISNEMRKASYKEMSKVCYFAEKCGAEVVTFHIGWNPAFINNGNFYFNKSLFDRHNESVLLNEFLPFVKTCPVQLALENTIMIEDGLERALNEIMGKTTLGLTIDVGHYNIRENPFFLKNFDRVVNMHLHDNDGTADQHLALGRGTVDLSKFNLNRYTGFLTIETREEKSIIESRDYLMRVIV
- soluble on expression in E. coli: not soluble

Sequence: MKQIKNTHYEGERPLFASHGLYLEEVTIHAGESALKECSDIEAVNCRFEGKYPFWHNDGFVVKNCLFTEGARAALWYSRNLKMKDTLVEAPKMFREMDGVELENVQLPNALETLWYCRNVELNNVKIDKGDYLFIHGEDIRIKNFVLNGNYSFQYCKNVEIRHAEIHSKDAFWNTENVTVYDSVLDGEYLGWHSKNLRLVNCKISGTQPLCYAHDLIMENCTMADDADLAFEHSSVKATIKGPVHSVKNPRTGNIVAESFGTIILDENLKAPGNCELKLWDGLTCFD
- soluble on expression in E. coli: soluble

Sequence: MVVVMNPEQIYGVSNIKSHIPVMLDIEESNYDAWRELFLTHCLSFDVMGHIDGTLLPTNANDVNWQKRDGIVKLSLYGTLTPKQFQGSFVTSSTSRDIWLRIKNQFRNNKDARALRLDSELRTKDIGDMRVADYYRKMKKLADSLRNVDVPVTDRNLVMYVLNGLNPKFDNIINVIKHRQPFPSFDDAATMLQEEEDRLKRAIKPNPTHVDHSSSSTVLACSEAPPVTNFQRSGGNQMGYRGRGRGNNIFRGRGGRFSYYNMPTFNSWNRPPFYQNSYQMWNHPWGYPPYVNTNGGNGLGLLGPRPAY
- soluble on expression in E. coli: soluble

Sequence: MEDKTLGLLLDVVGELFSDEISIAVSNTKEYIYYRPSKRIDLKISAGDPIKEGTIAHKAMVTNQKTSEFMNRDVFGIPYHGMAVPFSNNGKLEGCVTAIYPALTDGKSVVTLKTTDGWIPVPFSKVMYLEAKDKKTYVNAEELTGTHKYSLQEFEYLLPKDSFIRCHRSFIVNVNHIKAIYPDTHSTFLLSMDNGERVPVSQSYASYFRKLLGF
- soluble on expression in E. coli: soluble

Sequence: MGSDKIHHHHHHMASVYWIPKLRIIPRTKFVTICPITLTLSLSMQYSPNLAHGTLLRRYKRFLADVLLDDGTEITLHCPNTGSMKNCLFPGETVWFSTSNNPKRKYAHTWEQSSTPDKQLIGINTGRANALAEEAINLGVIKELTGYDRLQREVKYGEENSRIDILLSSDTRASCYIEVKSCTLLEEGSTSGRGYFPDSVTVRGQKHLRELIHMVKQGHRAVLLFVVQHSGINSVSPARHIDVAYSELFTQALDAGVEVLAYQTQMSPQESQILTSCPVIT
- soluble on expression in E. coli: not soluble

Sequence: IRSIWENNGFGLMSSKTMTDFDYWISDFEKIGASQKEAEQLIVKAIEIAIDANARNYNYINAILKDWEQRGFKSVEEREA
- soluble on expression in E. coli: soluble

Sequence: MIRRLPMTDSRGMNSDKYGIPNIHIRTTPGPDMDKQTKQTNDSGFNSYSRKYHIPRLWYEPARGIYCSDSVSYSWFIQFLQGGIVHVLCRTSLLSISRILRKRGQKVYFGLRKRHEKLVGFASGHGLCLPGPFQHDPIAPVLLPRFPFVRQGRLVRSVLHTGLFE
- soluble on expression in E. coli: not soluble

Sequence: GSPEFPPTIQEIKQKIDSYNSREKHCLGMKLSEDGTYTGFIKVHLKLRRPVTVPAGIRPQSIYDAIKEVNPAATTDKRTSFYLPLDAIKQMHISSTTTVSEVIQGLLDKFMVVDNPQKFALFKRIHKDGQVLFQKLSIADYPLYLRLLAGPDTDVLSFVLKEN
- soluble on expression in E. coli: soluble

Sequence: MGSDKIHHHHHHMPEQNSFPPEVDHTRPNPARIYDYGLGGHHNFAADRDQFEKLLEVDPDARLVVSANRAFLRRAVRYCLRQGITQFLDLGSGIPTVGNVHEAAHQLNPRARVVYVDNEPIAVAHTRRLLRENENAEIVQADLRDPDAILGAPETQRLLDLSKPVGLMMVAVLHWVPSADVAGLLSRYREVLAPGSYLAISHLTSEHLPEQMGEVEDVFAETTEPVVYRPRSEAVKLFEGFELVPPGVVYTSQWQSEPYEMVEPPERTKIWAAVGRKL
- soluble on expression in E. coli: not soluble

Sequence: MHTVVMTKGVPDFREGQVSFDEDGHLERGKTPTVMNPNDKHALRAAFQTKVRNGGHVSLMSMGPPGYKEVLQEGMRDVYADDLYLLSDREMGAADTWATAMTVATGLQNLEEQPDLVFAGFKTADGETGHTGPQTCWCLDWPIITHVLSLDIDEDAGTVRAKRLVDGDISEIETVEAPMPCFIVADPEFEPTYRKASHRLKHKDLREETQERATEYEEYLTIWDHEGLNLDPDYIGLDGSPTIVAGVDPIPKAPSEREATVIEADEREALEPVLDELTPYAAGD
- soluble on expression in E. coli: not soluble

Sequence: GPLGSNEEANRFANQAKLRVQEAVFYIWSDKTLKYSQMANDEAESFRNTWLLFRSFQQWITLTQTFKEQSRLADQAFLNKMFRKILKAQEHWKH
- soluble on expression in E. coli: soluble

Sequence: MIELKPPDVMPNGNIGTPSQYFLEQIRLCRLPTTVISKLGIQTQKRKKKFGEVDFQYEKTDSCKAEKIKCETIPGVEDELEDPTERVRMNQNPEDNDDGKDDDNDQCEEWERHEALHEDVTEQDRAKPRKYEEEMEVTWEKGGPGLVWYTDKNYWDEREKGTDCDWAWADDWDVDYSVYYEGKSAGDMDAKAAIEMRNDDLMRSGKLEQSAFTKKRNPHNLGTTRKRRNSDGGGSSEKASENLQKGIGGSMLAKMGWKPGTGLGKNEQGRVVPVAVYVEEDGQSSKEKTGFGYRGEKLSRVVQKKTIRHVIASAFDSVTDREQCEDKQSEEELHGEILFRRSEVTKMNKFQVLKLQFPKRNIQKTKTFQNFGKLSKCTQLYRFFLMN
- soluble on expression in E. coli: not soluble

Sequence: MDYFDRCYIINLPERRDRRREMEKELERAGMPPMPGRVEFFPAIRPESAGPFPSIGAHGCFLSHLGILRAAKAQGLRNVLILEDDLTFAAQFPEVEEKLVGELRETPWDFAFFGHVLEFPEVPPDRAHLEPYAGPIVTAHFYAVNGAVIDRLLGFLDALLQRPPGHPDGGPMHVDGAYSTFRQQNPDVVTLVAVPSQGWQRSSRSDIAPNRWYDRWPLVRSLVALARRGKTWLRGNRRHAAALEHHHHHH
- soluble on expression in E. coli: not soluble

Sequence: MPETTYKYEDNEVKKKKTIFNENGYIIEELHYDKNRKEPYSYKKRYNDKGLLVESHEHTYTYEYDKNGNLVQIKRPKNSAYGGLERTTYNKAGKIIRTQTFTQNQYDKAGVKITDDSNYLKDKNGELYQSLTDYSYIYNKDGKLQEIRDNVFSSGTIKYSYEYEDGLYVKTAELVTQKFVTYYDKAGNEVKYKWITYSLGPDKPRTQLHLVFKENKRDKYGNLIYQVANRIEELDPEKKGTDVGIYEKKIIEYEYYELEHHHHHH
- soluble on expression in E. coli: not soluble

Sequence: MADHSIQGKVALIAGGAKNLGGLIARDLAAHGARAIAIHYNSPASKADADATVAALQAAGAQAVALQGDLTTAAAVEKLYADALAAVGRPDIAINTVGKVLKKPFSEISEAEYDEMAAVNAKSAFFFLKEAGRHVNDHGKIVTLVTSLLGAFTPFYSAYAGTKAPVEHYTRAAAKEFGARGISVTAVGPGPMDTPFFYGQESPEAVAYHQSAAALSPHSPTGLTHIEDVVPFIRHLVSDGWWITGQTLLINGGYTTK
- soluble on expression in E. coli: not soluble

Sequence: MGSDKIHHHHHHMKVQRIQAIENLIHEKGSASLDDLCKQFNVSKNTIRRDIAKLLQKNTIKKVYGGVVSIYNNPEEIRPFENRDTENHAEKQLIGKAAADFIEENDLIFIDSGTTTSCLAAALPTDKEITIITNSLDVINFASEMDNVKLIVIGSTFKTSTKSFVGVENWGFFEKYNITKAFMAATALSTTHGVMNSDILEYEIKRHMMEKAREKFLLVDHTKVDKSALLTYGELAEFDWLVTSKEMAGGCLGYCADVGVLVRLV
- soluble on expression in E. coli: not soluble

Sequence: PDPNRFDRDRLFNAVSRGVPEDLAGLPEYLSKTSKYLTDSEYTEGSTGKTCLMKAVLNLKDGVNACILPLLQIDRDSGNPQPLVNAQCTDDYYRGHSALHIAIEKRSLQCVKLLVENGANVHARACGRFFQKGQGTCFYFGELPLSLAACTKQWDVVSYLLENPHQPASLQATDSQGNTVLHALVMISDNSAENIALVTSMYDGLLQAGARLCPTVQLEDIRNLQDLTPLKLAAKEGKIEIFRHILQREFS
- soluble on expression in E. coli: soluble

Sequence: MAHHHHHHMIDEKSKMYSKNDEFNVKKEMDMNLKCDNVNLDIWNTSFLNNETLNEDIFIHIGNKLLKMYYTTNHNIPSETLYSLLYEMKNGYNNVPYHNSIHAAMVTHHCNVLVSNLNTANILRDNELGALFVASLGHDIGHFGRTNIFLKNCCNFLSIIYNDKSILENYHCSYLFNILLKDENNIFKNEDPKCLLALRQQIIELILATDMSKHIKILAQFRIKSIKIKSYIEKNIILCLKMIIKAADLSHNCVDWSEHYQWVKRLVNEFYYEGDELFQMGYKINPLFDRNCHNNFIQIQRTFLKELVYPLIISLKTLDNTSITQDMINNVKRNYSKWTKIEKCQIKKKKYLNELLCNIPDNWARVYYPNLNIY
- soluble on expression in E. coli: not soluble

Sequence: MDFHLRNKLNLPGNLPQPPNTNLNLPPNVPALLIQSSIKYSELEKFVRRGLHASGVFVIEDPTTTGVAQLKILSERWGDLPTAIDIQGRAQEYSLRYAAIFTLIDGNGEVVVPQQVIELSRDYRSPPVDATGTTTEREILVNELRRDMSASILRRIDSVIRSRLEKRELLEQAKPPSPATSGALEHHHHHH
- soluble on expression in E. coli: not soluble

Sequence: MGSSHHHHHHSSGLVPRGSHMAPTEIKPEDDILGRARVRDTPELEAYYDDLAKIETGALWTVANDIEPWEPTPKSAPVHWKWSDLRREVLRAIDLVRPEDAGRRVVYLRNPQRKDVSAACGWLFSGIQTMKAGERAGAHRHAASALRFIMEGSGAYTIVDGHKVELGANDFVLTPNGTWHEHGILESGTECIWQDGLDIPLTNCLEANFYEVHPNDYQTTDIPLNDSPLTYGGPALLPQLDKWDKPYSPLLKYSWEPTYEALLNYAKASDGSPYDGLILRYTNPQTGGHPMLTMGASMQMLRPGEHTKAHRHTGNVIYNVAKGQGYSIVGGKRFDWSEHDIFCVPAWTWHEHCNTQERDDACLFSFNDFPVMEKLGFWAEQALEDNGGHQIVAD
- soluble on expression in E. coli: soluble

Sequence: MSGCPFAGNSVGYTLKNVSMEDNEEDRAQTGVNRASKGGLIYGNYLQLEKILNAQELQSEVKGNKIHDEHLFIITHQAYELWFKQILWELDSVREIFQNGHVRDERNMLKVIARMHRVVVIFKLLVQQFSVLETMTALDFNDFREYLSPASGFQSLQFRLLENKIGVLQSLRVPYNRKHYRDNFGGDYNELLLKSEQEQTLLQLVEAWLERTPGLEPNGFNFWGKFEKNILKGLEEEFLRIQAKTDSEEKEEQMAEFRKQKEVLLCLFDEKRHDYLLSKGERRLSYRALQGALMIYFYREEPRFQVPFQLLTSLMDIDTLMTKWRYNHVCMVHRMLGTKAGTGGSSGYHYLRSTVSDRYKVFVDLFNLSTYLVPRHWVPKMNPIIHKFLYTAEYSDSSYFSSDESD
- soluble on expression in E. coli: soluble
